Among the data in patent publication US20080292639A1 are EC50 of antibody induced phagocytosis of amyloid values, retold here.

In this assay the target is native amyloid plaques in unfixed brain sections of Tg2576 APP transgenic mice (human) (UniProt P05067). Briefly: cell-based or functional assay.
Chain of native amyloid plaques in unfixed brain sections of Tg2576 APP transgenic mice (human) (P05067 672-713 limits assumed): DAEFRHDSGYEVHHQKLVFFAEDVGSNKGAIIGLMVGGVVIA

In turn, “mAb 4G8 (commercially available anti-Aβ antibody)” showed an EC50 of antibody induced phagocytosis of amyloid of 0.8 µg/mL.
In turn, mAb 6E10 (antibody) displayed an EC50 of antibody induced phagocytosis of amyloid of 5 µg/mL.
